Results reported in the supplement of paper PMC10724198.
± gives the standard deviation of the averaged measurements.

Legend:
Saccharomyces cerevisiae [1] = assay: protein stability index of tFT-peptide fusion (C-terminal peptide) (PSI (0-1 scale)); higher = more stable (slower turnover)
Experimental: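 MPS profiling in S. cerevisiae of the tFT-X12 degron library: putative degron peptides plus stable controls, 12 aa, fused to the C-terminus of a sfGFP-mCherry timer. Cells are FACS-sorted into 8 mCherry/sfGFP bins and deep-sequenced. PSI runs from 0 (unstable) to 1 (stable). Backgrounds are wild type, das1Δ and doa10Δ at 30 °C, and wild type, das1Δ, cdc34-1 and cdc53-1 at 37 °C; 2-3 technical replicates each.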

Saccharomyces cerevisiae [2] = assay: as above; conditions: genetic background: wild type; temperature: 30 C
[3] = genetic background: cdc34-1, temperature: 37 C
[4] = genetic background: cdc53-1, temperature: 37 C
[5] = genetic background: das1 deletion, temperature: 30 C
[6] = genetic background: das1 deletion, temperature: 37 C
[7] = genetic background: doa10 deletion, temperature: 30 C
[8] = genetic background: wild type, temperature: 30 C
[9] = genetic background: wild type, temperature: 37 C
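Also: PSI is a weighted mean of sequencing reads over stability bins, variants kept only with over 10 reads, mCherry proximal and sfGFP distal, peptide attached via GGGS linker.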

Sequence | protein stability index (Saccharomyces cerevisiae [1]; [3]) | protein stability index (Saccharomyces cerevisiae [1]; [4]) | protein stability index (Saccharomyces cerevisiae [1]; [5]) | protein stability index (Saccharomyces cerevisiae [1]; [6]) | protein stability index (Saccharomyces cerevisiae [1]; [7]) | protein stability index (Saccharomyces cerevisiae [1]; [8]) | protein stability index (Saccharomyces cerevisiae [1]; [9]) | protein stability index (Saccharomyces cerevisiae [2])
MSIWKIFIWRLG | 0.524 ± 0.017 | 0.627 ± 0.037 | 0.494 ± 0.019 | 0.648 ± 0.028 | 0.132 ± 0.013 | 0.153 ± 0.024 | 0.2694 ± 0.00052 | 0.263 ± 0.019
GIGYMFLNVWLV | 0.234 ± 0.036 | 0.302 ± 0.0072 | 0.246 ± 0.024 | 0.4208 ± 0.00089 | 0.0963 ± 0.011 | 0.0848 ± 0.015 | 0.122 ± 0.017 | 0.153 ± 0.022
MVVILLVHWEYV | 0.15 ± 0.011 | 0.222 ± 0.032 | 0.172 ± 0.035 | 0.321 ± 0.017 | 0.17 ± 0.0031 | 0.171 ± 0.025 | 0.2768 ± 0.0012 | 0.262 ± 0.017
IVCAVTSIFLFF | 0.306 ± 0.015 | 0.45 ± 0.0079 | 0.288 ± 0.014 | 0.452 ± 0.016 | 0.243 ± 0.01 | 0.249 ± 0.035 | 0.422 ± 0.0045 | 0.315 ± 0.021
TKKGQTRPSRTD | 0.634 ± 0.0078 | 0.6989 ± 0.0024 | 0.642 ± 0.034 | 0.705 ± 0.017 | 0.6444 ± 0.0049 | 0.687 ± 0.029 | 0.696 ± 0.017 | 0.575 ± 0.21
LVFSFFFLFFFM | 0.449 ± 0.053 | 0.47 ± 0.029 | 0.375 ± 0.03 | 0.46047 ± 0.00043 | 0.375 ± 0.027 | 0.287 ± 0.05 | 0.442 ± 0.11 | 0.394 ± 0.044
VFSFLYHVVPVL | 0.4374 ± 0.0012 | 0.49 ± 0.013 | 0.36 ± 0.028 | 0.505 ± 0.01 | 0.324 ± 0.018 | 0.348 ± 0.024 | 0.4554 ± 0.0018 | 0.441 ± 0.01
YVSSFSLVVLLS | 0.425 ± 0.0077 | 0.478 ± 0.024 | 0.377 ± 0.033 | 0.506 ± 0.0069 | 0.108 ± 0.015 | 0.125 ± 0.014 | 0.217 ± 0.017 | 0.228 ± 0.029
DLLKAILKIKSL | 0.579 ± 0.095 | 0.704 ± 0.05 | 0.6279 ± 0.0037 | 0.7476 ± 0.0011 | 0.104 ± 0.0099 | 0.0962 ± 0.017 | 0.162 ± 0.049 | 0.171 ± 0.054
LCVVFCIRTYRV | 0.249 ± 0.027 | 0.437 ± 0.079 | 0.259 ± 0.038 | 0.476 ± 0.044 | 0.247 ± 0.031 | 0.251 ± 0.042 | 0.471 ± 0.027 | 0.335 ± 0.053
VACTCILVALVV | 0.059 ± 0.0069 | 0.164 ± 0.02 | 0.0772 ± 0.027 | 0.198 ± 0.0045 | 0.0424 ± 0.0038 | 0.0686 ± 0.035 | 0.165 ± 0.005 | 0.142 ± 0.035
AFLLVLFCCVSC | 0.241 ± 0.044 | 0.258 ± 0.0057 | 0.252 ± 0.023 | 0.3459 ± 0.0017 | 0.229 ± 0.0086 | 0.225 ± 0.023 | 0.303 ± 0.01 | 0.298 ± 0.018
YPSCPINFICLC | 0.618 ± 0.0088 | 0.6992 ± 0.0053 | 0.585 ± 0.017 | 0.685 ± 0.01 | 0.29 ± 0.0056 | 0.308 ± 0.037 | 0.499 ± 0.0051 | 0.417 ± 0.035
LAPPFPVVLTPA | 0.294 ± 0.043 | 0.32381 ± 2.9e-05 | 0.263 ± 0.036 | 0.4137 ± 0.00012 | 0.219 ± 0.0087 | 0.267 ± 0.035 | 0.3816 ± 0.0013 | 0.334 ± 0.015
YSMLGKLVRLVT | 0.553 ± 0.05 | 0.662 ± 0.02 | 0.512 ± 0.025 | 0.63036 ± 0.00022 | 0.164 ± 0.004 | 0.2 ± 0.013 | 0.374 ± 0.015 | 0.285 ± 0.033
AVCVVVMAVFVG | 0.339 ± 0.056 | 0.4098 ± 0.0026 | 0.297 ± 0.028 | 0.417 ± 0.012 | 0.293 ± 0.022 | 0.3 ± 0.012 | 0.397 ± 0.021 | 0.3646 ± 0.0028
PPRDPGGLFTPF | 0.732 ± 0.017 | 0.7854 ± 0.0062 | 0.679 ± 0.0077 | 0.7763 ± 0.003 | 0.703 ± 0.022 | 0.674 ± 0.028 | 0.767 ± 0.039 | 0.71756 ± 0.00059
ALRGLWFPFSCL | 0.66 ± 0.023 | 0.765 ± 0.0018 | 0.68 ± 0.024 | 0.8093 ± 0.0029 | 0.168 ± 0.032 | 0.193 ± 0.028 | 0.283 ± 0.01 | 0.393 ± 0.022
CRLRYSILWFRL | 0.104 ± 0.024 | 0.09746 ± 0.00035 | 0.245 ± 0.033 | 0.309 ± 0.032 | 0.201 ± 0.016 | 0.124 ± 0.017 | 0.155 ± 0.006 | 0.152 ± 0.017
FVRCFWPFVFVF | 0.17 ± 0.01 | 0.142 ± 0.021 | 0.222 ± 0.031 | 0.332 ± 0.0095 | 0.139 ± 0.0072 | 0.126 ± 0.0099 | 0.14 ± 0.012 | 0.203 ± 0.023

Sequence | protein stability index (Saccharomyces cerevisiae [1]; [3]) | protein stability index (Saccharomyces cerevisiae [1]; [4]) | protein stability index (Saccharomyces cerevisiae [1]; [5]) | protein stability index (Saccharomyces cerevisiae [1]; [6]) | protein stability index (Saccharomyces cerevisiae [1]; [7]) | protein stability index (Saccharomyces cerevisiae [1]; [8]) | protein stability index (Saccharomyces cerevisiae [1]; [9]) | protein stability index (Saccharomyces cerevisiae [2])
SGFLNVGYLWVC | 0.5625 ± 0.00014 | 0.635 ± 0.0083 | 0.482 ± 0.025 | 0.644 ± 0.017 | 0.149 ± 0.012 | 0.175 ± 0.02 | 0.308 ± 0.02 | 0.239 ± 0.069
FFVMVFTVEVFV | 0.0407 ± 0.015 | 0.0863 ± 0.019 | 0.0929 ± 0.015 | 0.167 ± 0.01 | 0.0639 ± 0.011 | 0.0875 ± 0.015 | 0.132 ± 0.0075 | 0.194 ± 0.02
VYQAFIFRMSLF | 0.529 ± 0.026 | 0.672 ± 0.0078 | 0.586 ± 0.019 | 0.695 ± 0.016 | 0.147 ± 0.0025 | 0.159 ± 0.02 | 0.248 ± 0.0046 | 0.243 ± 0.068
WDEVVAIVVCPV | 0.436 ± 0.016 | 0.421 ± 0.0076 | 0.293 ± 0.036 | 0.493 ± 0.012 | 0.242 ± 0.0082 | 0.3 ± 0.016 | 0.457 ± 0.015 | 0.39 ± 0.023
PPGSPPGSLRPT | 0.67 ± 0.038 | 0.715 ± 0.027 | 0.664 ± 0.026 | 0.713 ± 0.013 | 0.662 ± 0.029 | 0.665 ± 0.036 | 0.703 ± 0.013 | 0.78 ± 0.025
FLWAVSLCRSLV | 0.607 ± 0.029 | 0.655 ± 0.022 | 0.548 ± 0.035 | 0.662 ± 0.015 | 0.178 ± 0.017 | 0.218 ± 0.026 | 0.385 ± 0.014 | 0.312 ± 0.029
VYTVGFVCWLVY | 0.203 ± 0.0067 | 0.27 ± 0.013 | 0.208 ± 0.021 | 0.3458 ± 0.0024 | 0.185 ± 0.014 | 0.176 ± 0.025 | 0.323 ± 0.016 | 0.316 ± 0.026
KIKKLKNRRKLV | 0.673 ± 0.0046 | 0.7717 ± 0.0033 | 0.625 ± 0.0071 | 0.7297 ± 0.003 | 0.0918 ± 0.019 | 0.0978 ± 0.0038 | 0.196 ± 0.032 | 0.166 ± 0.088
LSPLSPLLFRLI | 0.482 ± 0.04 | 0.509 ± 0.012 | 0.516 ± 0.055 | 0.62 ± 0.018 | 0.249 ± 0.0059 | 0.226 ± 0.013 | 0.37479 ± 6.6e-05 | 0.296 ± 0.016
WQGLSGSPILVI | 0.197 ± 0.012 | 0.248 ± 0.015 | 0.247 ± 0.037 | 0.3829 ± 0.0012 | 0.206 ± 0.0061 | 0.241 ± 0.048 | 0.334 ± 0.013 | 0.402 ± 0.016
RLIAVAGVVVVA | 0.541 ± 0.032 | 0.5509 ± 0.0042 | 0.425 ± 0.025 | 0.5685 ± 0.0055 | 0.3997 ± 0.00095 | 0.431 ± 0.021 | 0.547 ± 0.0055 | 0.477 ± 0.054
ILRIYIPRWRRQ | 0.648 ± 0.069 | 0.6821 ± 0.0054 | 0.62 ± 0.02 | 0.7292 ± 0.0032 | 0.119 ± 0.032 | 0.132 ± 0.035 | 0.332 ± 0.0091 | 0.219 ± 0.087
YLFFVCLHLKAG | 0.233 ± 0.03 | 0.335 ± 0.018 | 0.227 ± 0.031 | 0.417 ± 0.013 | 0.174 ± 0.0063 | 0.206 ± 0.018 | 0.3494 ± 0.00053 | 0.302 ± 0.044
RCLHTSVFLIFP | 0.484 ± 0.012 | 0.488 ± 0.038 | 0.476 ± 0.038 | 0.604 ± 0.021 | 0.652 ± 0.026 | 0.488 ± 0.03 | 0.54 ± 0.008 | 0.459 ± 0.03
WGRENLTRVKLE | 0.70486 ± 0.00049 | 0.769 ± 0.0032 | 0.618 ± 0.049 | 0.725 ± 0.0082 | 0.207 ± 0.015 | 0.2 ± 0.017 | 0.424 ± 0.035 | 0.372 ± 0.061
RTWFTYMSIPVW | 0.196 ± 0.012 | 0.204 ± 0.069 | 0.234 ± 0.026 | 0.341 ± 0.01 | 0.189 ± 0.023 | 0.237 ± 0.026 | 0.311 ± 0.0057 | 0.343 ± 0.024
WSWCLDVVCFTS | 0.498 ± 0.036 | 0.547 ± 0.027 | 0.45 ± 0.021 | 0.563 ± 0.019 | 0.446 ± 0.011 | 0.439 ± 0.011 | 0.531 ± 0.024 | 0.471 ± 0.0059
FSSFLGFIRFFV | 0.661 ± 0.088 | 0.751 ± 0.0091 | 0.655 ± 0.022 | 0.751 ± 0.016 | 0.286 ± 0.018 | 0.315 ± 0.022 | 0.59 ± 0.04 | 0.426 ± 0.052
GGLLSQLLRSIG | 0.664 ± 0.026 | 0.723 ± 0.019 | 0.617 ± 0.024 | 0.743 ± 0.0075 | 0.2341 ± 0.0008 | 0.279 ± 0.055 | 0.5807 ± 0.0052 | 0.425 ± 0.047
